The source of these data is the supplement of paper PMC10724198.

The data set has as its system Saccharomyces cerevisiae. Put plainly: protein stability index of tFT-peptide fusion (C-terminal peptide) (PSI (0-1 scale)); higher = more stable (slower turnover). The following applies: temperature: 30 C. Here is the method:
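MPS profiling in S. cerevisiae of the yeast C-terminome library: the last 12 aa of each annotated ORF are fused to the C-terminus of a sfGFP-mCherry timer, after a GGGS linker. Cells are FACS-sorted into 8 mCherry/sfGFP bins and deep-sequenced. PSI runs from 0 (unstable) to 1 (stable); wild type and das1Δ backgrounds, two technical replicates each.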

[1] abbreviates: genetic background: das1 deletion.

± gives the standard deviation of the averaged measurements.

Take LILHFVCLHFIN [OST2 C-terminal 12 aa]: the protein stability index was 0.544 ± 0.017 under setting [1] and 0.184 ± 0.027 (genetic background: wild type).

With LIRKMYYKNLKK [SSL2 C-terminal 12 aa], the protein stability index under setting [1] was determined as 0.693 ± 0.05 and the protein stability index (genetic background: wild type) is 0.757 ± 0.028.

As to LIYLNETLGTRL [IRC19 C-terminal 12 aa], the protein stability index amounted to 0.705 ± 0.015 under setting [1] and 0.671 ± 0.003 (genetic background: wild type).

For LKDEKRGDNVLA [THS1 C-terminal 12 aa], the protein stability index reads like this: under setting [1], 0.6983 ± 0.0068; (genetic background: wild type) 0.67 ± 0.018.

Regarding LKHNGQRKLAST [ANT1 C-terminal 12 aa], the protein stability index reads like this: under setting [1], 0.685 ± 0.034; (genetic background: wild type) 0.701 ± 0.033.

Regarding LKKPRSGFHVIV [YFR006W C-terminal 12 aa], the protein stability index by setting is: under setting [1], 0.69 ± 0.027; (genetic background: wild type) 0.6371 ± 0.0052.

As for LKQENAYLLIRR [RPB8 C-terminal 12 aa], the protein stability index stood at 0.693 ± 0.0081 under setting [1] and 0.68 ± 0.01 (genetic background: wild type).

As for LKRTAIQFAAFS [SEC5 C-terminal 12 aa], the protein stability index under setting [1] is 0.6855 ± 0.0022 and the protein stability index (genetic background: wild type) turned out to be 0.6844 ± 0.0012.

On to LLIQEEMKLKEV [YPK9 C-terminal 12 aa], for which the protein stability index stood at 0.7188 ± 0.0014 under setting [1] and 0.703 ± 0.022 (genetic background: wild type).

Take LLLPITSSLLFI [MIN4 C-terminal 12 aa]: the protein stability index came out at 0.618 ± 0.011 under setting [1] and 0.62 ± 0.021 (genetic background: wild type).

Take “LLMVGVPLLFSS [YPR159C-A C-terminal 12 aa]”: the protein stability index runs as follows: under setting [1], 0.6249 ± 0.00071; (genetic background: wild type) 0.6282 ± 0.0051.

For LLSLLRVLKQPH [CSS1 C-terminal 12 aa], the protein stability index by setting is: under setting [1], 0.675 ± 0.023; (genetic background: wild type) 0.66 ± 0.011.

For the sequence LMGAALAAVMLL [FIT3 C-terminal 12 aa], the protein stability index is, setting by setting: under setting [1], 0.6841 ± 0.0054; (genetic background: wild type) 0.6409 ± 0.0026.

On to LMNAQSNETKLN [PTC6 C-terminal 12 aa], for which the protein stability index runs as follows: under setting [1], 0.7111 ± 0.0056; (genetic background: wild type) 0.692 ± 0.033.

For LMPSASLQDFYG [VID27 C-terminal 12 aa], the protein stability index is 0.73 ± 0.014 under setting [1] and 0.726 ± 0.014 (genetic background: wild type).

In the case of LNFFAEETLDFE [EAT1 C-terminal 12 aa], the protein stability index stood at 0.734 ± 0.033 under setting [1] and 0.689 ± 0.033 (genetic background: wild type).

Regarding LNLPWKRKKTTI [YCR101C C-terminal 12 aa], the protein stability index runs as follows: under setting [1], 0.707 ± 0.017; (genetic background: wild type) 0.686 ± 0.019.

With LNPIRSLRYCNY [YPP1 C-terminal 12 aa], the protein stability index amounted to 0.7156 ± 0.0026 under setting [1] and 0.629 ± 0.024 (genetic background: wild type).

As for LNSIDPALISKY [AFT2 C-terminal 12 aa], the protein stability index is, setting by setting: under setting [1], 0.744 ± 0.035; (genetic background: wild type) 0.741 ± 0.036.

For the sequence LQALIIVQVMFS [YLL059C C-terminal 12 aa], the protein stability index came out at 0.128 ± 0.025 under setting [1] and 0.157 ± 0.013 (genetic background: wild type).

On to LQAVAVAVSTKK [FAS2 C-terminal 12 aa], for which the protein stability index runs as follows: under setting [1], 0.659 ± 0.01; (genetic background: wild type) 0.65 ± 0.033.

For LQESKSQEKNKI [MRX19 C-terminal 12 aa], the protein stability index under setting [1] was 0.7135 ± 0.0016 and the protein stability index (genetic background: wild type) amounted to 0.782 ± 0.06.

For the sequence LQVKAVRAKLDE [ALD4 C-terminal 12 aa], the protein stability index reads like this: under setting [1], 0.699 ± 0.031; (genetic background: wild type) 0.68 ± 0.037.

On to LREMMNKDFAGL [PSD2 C-terminal 12 aa], for which the protein stability index is 0.708 ± 0.02 under setting [1] and 0.698 ± 0.0081 (genetic background: wild type).

On to “LRKNRSLDERYF [YML057C-A C-terminal 12 aa]”, for which the protein stability index runs as follows: under setting [1], 0.7089 ± 0.0023; (genetic background: wild type) 0.6568 ± 0.0029.

On to LRNKPFWENKRL [IPL1 C-terminal 12 aa], for which the protein stability index amounted to 0.702 ± 0.019 under setting [1] and 0.696 ± 0.015 (genetic background: wild type).

As to LRRIAKKHHKKK [SPB1 C-terminal 12 aa], the protein stability index under setting [1] was determined as 0.699 ± 0.044 and the protein stability index (genetic background: wild type) amounted to 0.722 ± 0.034.

For the sequence LRRLTSPSRTQP [BAG7 C-terminal 12 aa], the protein stability index under setting [1] was 0.71894 ± 0.00039 and the protein stability index (genetic background: wild type) is 0.705 ± 0.012.

Turning to LRSKGKRYDTRS [YJR018W C-terminal 12 aa], the protein stability index runs as follows: under setting [1], 0.7035 ± 0.0016; (genetic background: wild type) 0.708 ± 0.024.

On to LRSKSRLRGSHT [AHC1 C-terminal 12 aa], for which the protein stability index came to 0.73 ± 0.014 under setting [1] and 0.654 ± 0.038 (genetic background: wild type).

In the case of LSATIFLRGFLL [YIM2 C-terminal 12 aa], the protein stability index reads like this: under setting [1], 0.675 ± 0.029; (genetic background: wild type) 0.649 ± 0.031.

As for LSFVLASLNANK [FUN14 C-terminal 12 aa], the protein stability index amounted to 0.678 ± 0.021 under setting [1] and 0.67 ± 0.037 (genetic background: wild type).

With LSIGQKLTTPLC [SYC1 C-terminal 12 aa], the protein stability index under setting [1] was found to be 0.651 ± 0.015 and the protein stability index (genetic background: wild type) came to 0.656 ± 0.029.

As to “LSLIYSPHLYMS [YJL136W-A C-terminal 12 aa]”, the protein stability index runs as follows: under setting [1], 0.643 ± 0.013; (genetic background: wild type) 0.101 ± 0.0022.

With LSNIITLCRIIV [PEX34 C-terminal 12 aa], the protein stability index reads like this: under setting [1], 0.465 ± 0.0065; (genetic background: wild type) 0.319 ± 0.0077.

Consider LSQLVKKKPRRH [HIF1 C-terminal 12 aa], for which the protein stability index was 0.6885 ± 0.0039 under setting [1] and 0.729 ± 0.073 (genetic background: wild type).

As for LSVKWAVNTLMS [SRP101 C-terminal 12 aa], the protein stability index runs as follows: under setting [1], 0.671 ± 0.014; (genetic background: wild type) 0.568 ± 0.039.

For LTSMSARIAFDN [AAD14 C-terminal 12 aa], the protein stability index turned out to be 0.7219 ± 0.0034 under setting [1] and 0.699 ± 0.024 (genetic background: wild type).

With LVASNFFYAETK [TFS1 C-terminal 12 aa], the protein stability index turned out to be 0.7066 ± 0.00069 under setting [1] and 0.687 ± 0.028 (genetic background: wild type).

Turning to LVPEEEEETKDR [GRX5 C-terminal 12 aa], the protein stability index under setting [1] was 0.7214 ± 0.0068 and the protein stability index (genetic background: wild type) was 0.698 ± 0.033.

LYAFHQVGIHFS [DIM1 C-terminal 12 aa]: the protein stability index by setting is: under setting [1], 0.709 ± 0.032; (genetic background: wild type) 0.685 ± 0.014.

On to LYELKGLLGNDS [INP2 C-terminal 12 aa], for which the protein stability index by setting is: under setting [1], 0.681 ± 0.021; (genetic background: wild type) 0.673 ± 0.032.

For LYHKDADTIFHA [IRC11 C-terminal 12 aa], the protein stability index reads like this: under setting [1], 0.708 ± 0.014; (genetic background: wild type) 0.715 ± 0.015.

LYPLFEAVPFRR [YBL096C C-terminal 12 aa] registered a protein stability index under setting [1] of 0.729 ± 0.014 and a protein stability index (genetic background: wild type) of 0.734 ± 0.01.

In the case of LYSFNQLEPLQT [GIC2 C-terminal 12 aa], the protein stability index runs as follows: under setting [1], 0.703 ± 0.0092; (genetic background: wild type) 0.669 ± 0.025.

Regarding MDDEFVSGRFEI [SCH9 C-terminal 12 aa], the protein stability index turned out to be 0.717 ± 0.025 under setting [1] and 0.7026 ± 0.0042 (genetic background: wild type).

Sequence MDETIAPLVGCL [YEL008W C-terminal 12 aa] had a protein stability index under setting [1] of 0.724 ± 0.012 and a protein stability index (genetic background: wild type) of 0.701 ± 0.038.

MDLEKDRYYDLS [DAS2 C-terminal 12 aa]: the protein stability index is 0.6908 ± 0.0068 under setting [1] and 0.68 ± 0.027 (genetic background: wild type).

Consider MHQYSAIIPSGT [YJL182C C-terminal 12 aa], for which the protein stability index is 0.642 ± 0.019 under setting [1] and 0.603 ± 0.0061 (genetic background: wild type).

As for MITCLTAALKLN [AVT6 C-terminal 12 aa], the protein stability index by setting is: under setting [1], 0.6868 ± 0.0041; (genetic background: wild type) 0.174 ± 0.0018.
